From article PMC9728385

Experiments:
TtCST Ctc1 F264A/Y268A = TtCST Ctc1 F264A/Y268A (Tetrahymena, UniProt A0PGB2;Q6JXI5;D2CVN7;D2CVN8 1-622;1-373;1-164;1-422, F264A;Y268A); experiment: EMSA
[1] = biological target: TtCST Ctc1 R395E/Y445A/F473A (Tetrahymena, UniProt A0PGB2;Q6JXI5;D2CVN7;D2CVN8 1-622;1-373;1-164;1-422, R395E;Y445A;F473A); experiment: EMSA
Sequence of TtCST Ctc1 R395E/Y445A/F473A (A0PGB2 whole entry R395E/Y445A/F473A, chain 1 of 4): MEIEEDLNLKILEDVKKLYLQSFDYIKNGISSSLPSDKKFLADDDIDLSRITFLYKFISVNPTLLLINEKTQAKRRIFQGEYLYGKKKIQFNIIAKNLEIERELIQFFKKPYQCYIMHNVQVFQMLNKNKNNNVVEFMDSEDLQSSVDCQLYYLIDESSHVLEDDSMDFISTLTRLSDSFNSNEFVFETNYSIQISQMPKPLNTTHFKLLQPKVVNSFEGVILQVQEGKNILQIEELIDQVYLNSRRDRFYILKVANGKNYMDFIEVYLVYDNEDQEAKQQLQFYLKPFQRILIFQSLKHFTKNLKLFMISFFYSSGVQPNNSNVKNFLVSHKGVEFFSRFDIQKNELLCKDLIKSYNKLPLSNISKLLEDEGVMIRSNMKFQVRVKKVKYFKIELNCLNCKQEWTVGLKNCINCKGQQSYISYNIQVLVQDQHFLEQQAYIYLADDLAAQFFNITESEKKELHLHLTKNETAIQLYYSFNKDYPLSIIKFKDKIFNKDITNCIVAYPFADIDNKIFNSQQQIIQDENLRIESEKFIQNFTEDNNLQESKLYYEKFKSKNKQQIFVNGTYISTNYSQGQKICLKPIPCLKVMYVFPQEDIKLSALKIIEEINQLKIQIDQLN
Sequence of TtCST Ctc1 R395E/Y445A/F473A (Q6JXI5 whole entry, chain 2 of 4): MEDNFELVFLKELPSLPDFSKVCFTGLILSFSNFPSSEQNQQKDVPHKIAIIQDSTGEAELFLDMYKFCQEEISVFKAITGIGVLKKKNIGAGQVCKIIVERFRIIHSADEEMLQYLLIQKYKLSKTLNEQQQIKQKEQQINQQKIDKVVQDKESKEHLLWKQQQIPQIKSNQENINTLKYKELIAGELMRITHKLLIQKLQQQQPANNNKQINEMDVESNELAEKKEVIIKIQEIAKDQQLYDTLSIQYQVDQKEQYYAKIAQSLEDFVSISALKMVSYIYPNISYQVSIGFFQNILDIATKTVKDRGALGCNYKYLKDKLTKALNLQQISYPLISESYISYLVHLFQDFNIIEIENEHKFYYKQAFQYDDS
Sequence of TtCST Ctc1 R395E/Y445A/F473A (D2CVN7 whole entry, chain 3 of 4): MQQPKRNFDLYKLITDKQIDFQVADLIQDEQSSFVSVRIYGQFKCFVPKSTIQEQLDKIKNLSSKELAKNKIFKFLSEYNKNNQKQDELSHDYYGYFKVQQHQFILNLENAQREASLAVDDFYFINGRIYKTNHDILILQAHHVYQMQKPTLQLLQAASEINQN
Sequence of TtCST Ctc1 R395E/Y445A/F473A (D2CVN8 whole entry, chain 4 of 4): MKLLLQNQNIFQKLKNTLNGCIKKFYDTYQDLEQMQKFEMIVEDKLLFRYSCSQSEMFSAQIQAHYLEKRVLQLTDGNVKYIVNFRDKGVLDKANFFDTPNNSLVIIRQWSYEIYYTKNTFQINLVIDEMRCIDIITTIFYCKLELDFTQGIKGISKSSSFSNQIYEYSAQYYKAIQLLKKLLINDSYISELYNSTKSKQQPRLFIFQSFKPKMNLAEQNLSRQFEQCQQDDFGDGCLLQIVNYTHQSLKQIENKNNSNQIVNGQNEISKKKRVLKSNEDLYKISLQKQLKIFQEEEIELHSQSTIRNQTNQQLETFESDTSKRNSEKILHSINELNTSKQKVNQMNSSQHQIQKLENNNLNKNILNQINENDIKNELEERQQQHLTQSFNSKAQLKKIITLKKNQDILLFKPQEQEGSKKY

Sequence of TtCST Ctc1 F264A/Y268A (A0PGB2 whole entry F264A/Y268A, chain 1 of 4): as the sequence (A0PGB2 whole entry R395E/Y445A/F473A, chain 1 of 4) above, with F264A, Y268A, E395R, A445Y, A473F counted along it
Sequence of TtCST Ctc1 F264A/Y268A (Q6JXI5 whole entry, chain 2 of 4): as the sequence (Q6JXI5 whole entry, chain 2 of 4) above
Sequence of TtCST Ctc1 F264A/Y268A (D2CVN7 whole entry, chain 3 of 4): as the sequence (D2CVN7 whole entry, chain 3 of 4) above
Sequence of TtCST Ctc1 F264A/Y268A (D2CVN8 whole entry, chain 4 of 4): as the sequence (D2CVN8 whole entry, chain 4 of 4) above

B1: d(GTTGGG)5 (ssDNA)
DNA: GTTGGGGTTGGGGTTGGGGTTGGGGTTGGG
- binding signal (TtCST Ctc1 F264A/Y268A): 1.2 fold weaker Kd than WT
- Kd [1]: 520 nM
